{"source": "patent US20230312722A1", "about": "(NONA BIOSCIENCES SUZHOU, published 2023)", "binders": {"B1": {"name": "Control antibody 1 (PR000157) (antibody, V domains shown)", "VH": "EVQLVQSGAEVKKPGASVKVSCKASGYTFTSYWIGWVRQAPGQGLEWIGDIYPGGGYTNYNEKFKGRVTITRDTSTSTAYLELSSLRSEDTAVYYCARLAGSSYRGAMDSWGQGTLVTVSS", "VL": "DIQMTQSPSSLSASVGDRVTITCKASQGFNKYVAWYQQKPGKAPKLLIYYTSTLQPGVPSRFSGSGSGRDYTLTISSLQPEDFATYYCLQYGDLLYAFGQGTKVEIKR", "notes": "Anti-B7H4 IgG1 control antibody from WO2016040724A1; also called 1D11.v1.9varC2"}}, "key": {"[1]": {"molecular_target": "T1, human B7H4 on the cell surface (human, UniProt Q7Z7D3 25-282)", "T1 construct": "whole, on cells; also called CHOK1/hu B7H4; B7H4 on SK-BR-3", "T1 sequence (looked up)": "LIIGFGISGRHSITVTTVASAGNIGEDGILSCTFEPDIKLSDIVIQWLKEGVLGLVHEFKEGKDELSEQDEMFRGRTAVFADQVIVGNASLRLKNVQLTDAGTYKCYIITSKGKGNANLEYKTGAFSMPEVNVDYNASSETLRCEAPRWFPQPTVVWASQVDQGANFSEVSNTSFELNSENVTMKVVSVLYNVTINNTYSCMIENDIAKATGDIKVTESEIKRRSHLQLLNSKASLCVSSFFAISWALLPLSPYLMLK", "assay": "FACS, SK-BR-3 cells", "description": "(§1) This example is intended to investigate the in vitro binding activity of anti-human B7H4 H2L2 monoclonal antibody to human/cynomolgus monkey/mouse B7H4. Antibody binding experiments at the cellular level were performed using CHOK1 cell line overexpressing human B7H4 (CHOK1/hu B7H4, Harbour BioMed), CHOK1 cell line overexpressing cynomolgus monkey B7H4 (CHOK1/cyno B7H4, Harbour BioMed), CHOK1 cell line overexpressing mouse B7H4 (CHOK1/m B7H4, Harbour BioMed) and SK-BR-3 cell line (ATCC® HTB-30) highly expressing human B7H4. Briefly, CHOK1/hu B7H4 cells, CHOK1/cyno B7H4 cells, CHOK1/m B7H4 cells or SK-BR-3 cells were digested and resuspended with PBS containing 2% BSA. The cell density was adjusted to 1×10⁶ cells/mL. The cells were seeded in a 96-well V-bottom plate (Corning, #3894) at 100 μL/well, followed by the addition of test antibodies diluted in a 3-fold concentration gradient of 2 times the final concentration, each at 100 μL/well. The cells were incubated at 4° C. for 2 h away from light. Thereafter, the cells in each well were rinsed twice with 100 μL of pre-cooled PBS containing 2% BSA, and centrifuged at 500 g at 4° C. for 5 min, and then the supernatant was discarded. […] Finally, the cells in each well were resuspended with 200 μL of pre-cooled PBS containing 2% BSA, and the fluorescence signal values were read using an ACEA Novocyte3000 flow cytometer."}, "[2]": {"molecular_target": "T1, human B7H4 on the cell surface", "assay": "FACS, CHOK1/hu B7H4 cells", "description": "This example is intended to investigate the in vitro binding activity of anti-human B7H4 H2L2 monoclonal antibody to human/cynomolgus monkey/mouse B7H4. Antibody binding experiments at the cellular level were performed using CHOK1 cell line overexpressing human B7H4 (CHOK1/hu B7H4, Harbour BioMed), CHOK1 cell line overexpressing cynomolgus monkey B7H4 (CHOK1/cyno B7H4, Harbour BioMed), CHOK1 cell line overexpressing mouse B7H4 (CHOK1/m B7H4, Harbour BioMed) and SK-BR-3 cell line (ATCC® HTB-30) highly expressing human B7H4. Briefly, CHOK1/hu B7H4 cells, CHOK1/cyno B7H4 cells, CHOK1/m B7H4 cells or SK-BR-3 cells were digested and resuspended with PBS containing 2% BSA. The cell density was adjusted to 1×10⁶ cells/mL. The cells were seeded in a 96-well V-bottom plate (Corning, #3894) at 100 μL/well, followed by the addition of test antibodies diluted in a 3-fold concentration gradient of 2 times the final concentration, each at 100 μL/well. The cells were incubated at 4° C. for 2 h away from light. Thereafter, the cells in each well were rinsed twice with 100 μL of pre-cooled PBS containing 2% BSA, and centrifuged at 500 g at 4° C. for 5 min, and then the supernatant was discarded. Then 100 μL of a fluorescent secondary antibody (Alexa Fluor 488-conjugated AffiniPure Goat Anti-Human IgG, Fcγ Fragment Specific, Jackson, #109-545-098, 1:500 diluted) was added to each well. The plate was incubated away from light at 4° C. for 1 h. The cells in each well were washed twice with 100 μL of pre-cooled PBS containing 2% BSA, and centrifuged at 500 g at 4° C. for 5 minutes, and then the supernatant was discarded. Finally, the cells in each well were resuspended with 200 μL of pre-cooled PBS containing 2% BSA, and the fluorescence signal values were read using an ACEA Novocyte3000 flow cytometer."}, "[3]": {"molecular_target": "T1, human B7H4 on the cell surface", "assay": "FACS on MDA-MB-468 cells; in the drawn table the number stands under the head 'Maximum MFI' (the two heads are interchanged); the head says nM, the axis of the curve µg/mL"}, "[4]": {"molecular_target": "T1, human B7H4 on the cell surface", "assay": "FACS on MDA-MB-468 cells"}, "[5]": {"molecular_target": "T2, B7-H4 (Acro Biosystems, #B74-H82E2) (UniProt Q7Z7D3 29-258)", "T2 construct": "Bought protein; also called B7-H4 captured on SA sensor", "T2 sequence (looked up)": "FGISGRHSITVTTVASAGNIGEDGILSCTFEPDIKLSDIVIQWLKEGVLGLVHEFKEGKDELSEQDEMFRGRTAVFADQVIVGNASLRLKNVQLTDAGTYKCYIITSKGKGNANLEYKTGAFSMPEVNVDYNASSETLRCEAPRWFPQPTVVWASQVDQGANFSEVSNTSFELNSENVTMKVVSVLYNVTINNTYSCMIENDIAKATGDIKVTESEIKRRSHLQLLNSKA", "assay": "BLI epitope competition; 1st Ab = row; competitor (2nd Ab) Control antibody 2; inhibition of the 2nd Ab signal", "description": "(§2) Step one, acquisition of 100% signal of antibodies: B7-H4 (Acro Biosystems, #B74-H82E2-200 μg) was captured at a capture height of 0.25 nm using an SA sensor (Fortebio, #18-5019). The sensor was equilibrated in a buffer for 120 s and then immersed in each antibody diluted to 100 nM for 240 s, and the final signal of the antibody binding to B7-H4 was recorded as the 100% signal of the antibody. Step two, epitope competition experiment: B7-H4 was captured using an SA sensor at a capture height of 0.25 nm. The sensor was immersed in a primary antibody (at a concentration of 100 nM) for 240 s, and then the SA sensor was immersed in a mixture of the primary and secondary antibodies (both at a final concentration of 100 nM) for 240 s, and the difference in signals after immersion of the sensor in the antibody mixture was recorded as the signal of the antibody as the secondary antibody. The inhibition rate was calculated according to the following formula: […]"}, "[6]": {"molecular_target": "T2, B7-H4 (Acro Biosystems, #B74-H82E2)", "assay": "BLI epitope competition; 1st Ab = row; competitor (2nd Ab) Control antibody 1; inhibition of the 2nd Ab signal", "description": "as §2"}, "[7]": {"molecular_target": "T3, cynomolgus monkey B7H4 on the cell surface (cynomolgus monkey, UniProt A0A2K5U6P5 25-282)", "T3 construct": "whole, on cells; also called CHOK1/cyno B7H4", "T3 sequence": "T1 sequence (looked up) with L53I, F242L, S252A", "assay": "FACS, CHOK1/cyno B7H4 cells", "description": "as §1"}, "[8]": {"molecular_target": "T1, human B7H4 on the cell surface", "assay": "FACS on MDA-MB-468 cells; in the drawn table the number stands under the head 'EC50 (nM)' (the two heads are interchanged)"}}, "note": "Where a chain is given by its changes, count along the chain named."}
{"binder": "B1", "values": [{"measurement": "EC50", "setting": "[1]", "result": 1.2, "unit": "nM"}, {"measurement": "Maximum MFI", "setting": "[1]", "result": 266000, "unit": "MFI"}, {"measurement": "EC50", "setting": "[2]", "result": 1.94, "unit": "nM"}, {"measurement": "Maximum MFI", "setting": "[2]", "result": "1.84e+06", "unit": "MFI"}, {"measurement": "EC50", "setting": "[3]", "result": 0.194, "unit": "nM"}, {"measurement": "EC50 (read off the curve)", "setting": "[4]", "result": "~0.2", "unit": "µg/mL"}, {"measurement": "Competitive inhibition rate (%)", "setting": "[5]", "result": 94.6, "unit": "%"}, {"measurement": "Competitive inhibition rate (%)", "setting": "[6]", "result": 95.3, "unit": "%"}, {"measurement": "EC50", "setting": "[7]", "result": 2.1, "unit": "nM"}, {"measurement": "Maximum MFI", "setting": "[7]", "result": "1.99e+06", "unit": "MFI"}, {"measurement": "Maximum MFI", "setting": "[8]", "result": 254000}]}
